In publication PMC2864582:
Read-outs that look alike come from different tables or passages of the source.

Columns and labels:
Assay in all cases: fluorescence quenching
[1] = biological target: T1, hparp486 (Homo sapiens, UniProt P09874 1-486)
[2] = biological target: T1, hparp486; remark: listed apart in the source
[3] = biological target: T1, hparp486; remark: listed apart in the source

T1 sequence (P09874 1-486): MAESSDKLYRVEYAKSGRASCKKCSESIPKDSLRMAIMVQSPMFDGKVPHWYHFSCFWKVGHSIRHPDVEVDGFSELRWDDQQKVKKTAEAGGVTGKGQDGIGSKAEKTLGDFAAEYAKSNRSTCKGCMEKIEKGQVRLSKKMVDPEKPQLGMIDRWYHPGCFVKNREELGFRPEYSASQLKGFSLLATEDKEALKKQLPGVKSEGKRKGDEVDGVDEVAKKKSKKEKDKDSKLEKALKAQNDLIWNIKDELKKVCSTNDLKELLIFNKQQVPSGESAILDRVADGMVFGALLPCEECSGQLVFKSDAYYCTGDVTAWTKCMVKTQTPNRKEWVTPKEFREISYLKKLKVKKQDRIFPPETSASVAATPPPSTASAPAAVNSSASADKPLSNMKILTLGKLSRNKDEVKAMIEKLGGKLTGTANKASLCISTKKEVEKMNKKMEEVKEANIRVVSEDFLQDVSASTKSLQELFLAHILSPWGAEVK

B1: 30Ext (pos. B) (dsDNA)
DNA 1: ATCAGATAGCATCTGTGCGGCCGCTTAGGGTTAGGG
DNA 2: CCCTAAGCGGCCGCACAGATGCTATCTGAT
Kd [1]: 130 nM

B2: 30Ext (pos. A) (dsDNA)
DNA 1: ATCAGATAGCATCTGTGCGGCCGCTTAGGGTTAGGG
DNA 2: CCCTAAGCGGCCGCACAGATGCTATCTGAT
Kd [2]: 68 nM

B3: 30Blunt (dsDNA)
DNA 1: ATCAGATAGCATCTGTGCGGCCGCTTAGGG
DNA 2: CCCTAAGCGGCCGCACAGATGCTATCTGAT
Kd [3]: 282 nM
